Experimental data taken from patent US20170275350A1 (Scripps Research, published 2017).

T1: Protease activated receptor-1 (PAR1), endogenous on EA.hy.926 endothelial cells (human, UniProt P25116 42-425)
T1 sequence: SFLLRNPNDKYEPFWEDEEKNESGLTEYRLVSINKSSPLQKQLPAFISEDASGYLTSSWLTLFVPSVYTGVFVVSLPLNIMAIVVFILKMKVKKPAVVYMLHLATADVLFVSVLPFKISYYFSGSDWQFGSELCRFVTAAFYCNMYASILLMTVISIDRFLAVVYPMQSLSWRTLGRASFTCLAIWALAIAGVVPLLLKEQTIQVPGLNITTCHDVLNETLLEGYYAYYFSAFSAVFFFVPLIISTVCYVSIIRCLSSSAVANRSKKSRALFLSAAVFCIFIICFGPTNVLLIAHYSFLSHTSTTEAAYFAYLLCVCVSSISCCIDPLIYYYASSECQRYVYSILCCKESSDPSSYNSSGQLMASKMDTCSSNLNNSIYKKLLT


Key:
[1] = test system: Synthetic PAR1 N-terminal peptide TR33-62
[2] = target: Protease activated receptor-1 (PAR1), endogenous on EA.hy.926 endothelial cells (human) (UniProt P25116); assay: cell-based or functional assay
[3] = target: T1, Protease activated receptor-1 (PAR1), …; assay: cell-based or functional assay

Chain of Synthetic PAR1 N-terminal peptide TR33-62 (chain, as listed by the source): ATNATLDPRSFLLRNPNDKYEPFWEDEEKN

Row | Molecule | cleavage of the peptide (reverse phase HPLC, MALDI-TOF of fragments) [1] | ERK1/2 phosphorylation in EA.hy.926 cells (immunoblot, ratio to total ERK1/2) [3] [fold] | other results
1 | Thrombin | the two fragments produced by thrombin (peaks A and D) corresponded to masses of 1,001 and 2,670 for cleavage at Arg^41 | – | –
2 | Activated Protein C (from UniProt P04070 43-461) (enzyme) | – | – | ERK1/2 phosphorylation in EA.hy.926 cells (immunoblot, ratio to total ERK1/2) [2]: 1.5 fold; decrease of ATAP2 signal relative to WEDE15, on cell Western [2]: 50%
3 | Activated Protein C | APC cleaves this PAR1 peptide at Arg^46 as well as at Arg^41 | – | –
4 | TFLLRNPNDK [TFLL peptide (TR42-51 with S42T)] | – | 3 | –
5 | NPNDKYEPFWEDEEKNESGL [PAR1 peptide TR47-66] | – | 1.5 | –
